This is an account of results in PMC12509902, “PRMT1/PRMT5-Mediated Differential Arginine Methylation of CRIP1 Promotes the Recurrence of Small Cell Lung Cancer after Chemotherapy” (International Journal of Biological Sciences, 2025).

The target in the assay is T1, 3×Flag-PRMT5 (UniProt O14744 1-637).
T1 construct: Protein arginine methyltransferase 5 (PRMT5), from plasmid pCDH-CMV-3×Flag-PRMT5
In words: pull-down; GST pull-down as described in ref. 23; GST-tagged protein expressed in BL21; Flag-tagged protein purified from HEK-293T by Flag affinity gel and 3× FLAG peptide elution; the paper calls the binding direct. Particulars: both partners purified.

T1 sequence (O14744 whole entry): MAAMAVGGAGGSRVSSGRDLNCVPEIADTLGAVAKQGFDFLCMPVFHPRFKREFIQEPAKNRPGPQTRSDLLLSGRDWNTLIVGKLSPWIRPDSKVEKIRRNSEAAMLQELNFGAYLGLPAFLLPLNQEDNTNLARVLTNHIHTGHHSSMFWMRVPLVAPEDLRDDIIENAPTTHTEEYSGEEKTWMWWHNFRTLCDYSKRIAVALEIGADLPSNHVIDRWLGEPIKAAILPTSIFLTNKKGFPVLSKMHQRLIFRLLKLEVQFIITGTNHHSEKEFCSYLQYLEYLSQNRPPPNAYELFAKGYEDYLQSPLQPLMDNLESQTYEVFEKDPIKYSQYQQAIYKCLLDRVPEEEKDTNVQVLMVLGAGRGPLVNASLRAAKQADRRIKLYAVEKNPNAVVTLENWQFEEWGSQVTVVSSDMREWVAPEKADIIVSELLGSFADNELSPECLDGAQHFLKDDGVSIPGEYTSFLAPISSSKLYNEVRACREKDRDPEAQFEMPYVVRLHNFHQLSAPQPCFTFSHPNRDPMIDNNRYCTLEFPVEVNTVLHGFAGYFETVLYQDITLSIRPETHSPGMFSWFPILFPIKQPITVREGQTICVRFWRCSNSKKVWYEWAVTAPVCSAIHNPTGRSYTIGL

B1: GST-CRIP1, full-length (FL), wild type (natural protein, UniProt P50238 1-77, looked up)
chain: MPKCPKCNKEVYFAERVTSLGKDWHRPCLKCEKCGKTLTSGGHAEHEGKPYCNHPCYAAMFGPKGFGRGGAESHTFK
notes: Cysteine-rich intestinal protein 1 (CRIP1), full length, in pGEX-6P-1; also called GST-CRIP1 WT; source: E. coli BL21, induced with 1 mM IPTG
Take B1: the binding result is on record as “binds”.
